This passage reports Km results from publication PMC8993221, “Agl24 is an ancient archaeal homolog of the eukaryotic N-glycan chitobiose synthesis enzymes” (eLife, 2022).

Substrate in this data set: CC(=O)N[C@H]1[C@@H](OP(=O)(O)OP(=O)(O)OC[C@H]2O[C@@H](n3ccc(=O)[nH]c3=O)[C@H](O)[C@@H]2O)O[C@H](CO)[C@@H](O)[C@@H]1O
Nature of the data set: purified protein. It is filed as biochemical, Sulfolobus acidocaldarius. Conditions: 0.5 mM acceptor-2 (phenyl-O-C11H22-PP-GlcNAc), TBS with 5 mM MgCl2, pH 7.5, 60 °C, 10 hr, UDP-GlcNAc 0.5-12 mM.

B1: Agl24 (Saci1262) (Sulfolobus acidocaldarius DSM 639) (protein)
chain: MIDNPLLIIASGGGHTGFARAIAEYLPFKPDFVIPENDRFSKDMLLDYARKLYYVKKGKDPGQGNIVLMRNFLKIIIESGKIPKYLATIATGSNHSLIPAMFQKIKGSALYVTESQDRIITRGKTVSVLSKFSRHVFLHWNEQKGLYDNGVVVGPIVEKPKYKSENKGYILVTTGSMGFKKLFDSLLNLRGNYKFVIQTGKVDPTPYIEKKPDWSFFSFDKDIERYIANAELVITHQGKTAMESVVMYGKPTIIVYNKDWKSATTKQDTILYSKILGATFLDDPSTWDSIKVLEDSIQNVRKPNQFEIGTPKLIDIILSELAEFLRE
notes: full length (327 residues), C-terminal TEV site-GFP-His8 fusion (pWaldo, plasmid pHD0499), tags kept; E. coli BL21 membranes, DDM-solubilised, Ni purified
As for B1, the Michaelis-Menten constant (Km) (commonly the substrate concentration at which the rate is half of its maximum) amounted to 1370 ± 130 µM.
